This note sets out measurements from patent US20220332804A1 (CSL INNOVATION, published 2022).

Substitutions are numbered along the chain they refer to.

Common to all, as to assay: SPR, KD relative to WT C2;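 note: biacore SPR at 37 °C, anti-C2 mAbs captured on anti-human IgG chips with alanine or serine point mutants of C2 as analyte, KD from 1:1 fit compared with wild-type C2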
For test [1], the target named is T1, human C2 E476A (human, UniProt P06681 21-752).
T1 sequence: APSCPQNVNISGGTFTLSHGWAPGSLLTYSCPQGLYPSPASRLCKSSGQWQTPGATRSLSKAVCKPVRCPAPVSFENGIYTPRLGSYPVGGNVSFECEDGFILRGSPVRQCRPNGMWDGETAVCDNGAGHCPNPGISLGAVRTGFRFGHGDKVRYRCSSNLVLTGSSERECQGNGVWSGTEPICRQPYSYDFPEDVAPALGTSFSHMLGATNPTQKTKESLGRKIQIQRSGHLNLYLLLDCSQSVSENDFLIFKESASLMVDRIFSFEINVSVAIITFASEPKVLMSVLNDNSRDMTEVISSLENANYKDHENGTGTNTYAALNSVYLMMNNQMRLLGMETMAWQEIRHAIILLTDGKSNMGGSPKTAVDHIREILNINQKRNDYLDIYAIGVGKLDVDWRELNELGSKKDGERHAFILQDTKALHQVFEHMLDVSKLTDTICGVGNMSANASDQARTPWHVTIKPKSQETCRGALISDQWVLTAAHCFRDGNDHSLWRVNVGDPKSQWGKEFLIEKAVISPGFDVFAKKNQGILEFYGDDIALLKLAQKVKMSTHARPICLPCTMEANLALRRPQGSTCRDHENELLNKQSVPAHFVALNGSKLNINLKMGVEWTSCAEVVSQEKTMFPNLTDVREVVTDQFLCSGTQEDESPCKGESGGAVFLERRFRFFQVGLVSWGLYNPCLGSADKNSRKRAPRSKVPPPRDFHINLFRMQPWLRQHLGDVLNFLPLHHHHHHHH

Test [2] has as its target T2, human C2 E275A (human, UniProt P06681 21-752).
T2 sequence: T1 sequence with E255A, A456E

The target of test [3] is T3, human C2 G432A (human, UniProt P06681 21-752).
T3 sequence: T1 sequence with G412A, A456E

Test [4] has as its target T4, human C2 R493A (human, UniProt P06681 21-752).
T4 sequence: T1 sequence with A456E, R473A

B1: RF16-242 (antibody, human IgG4 S228P, lambda, V domains shown)
VH: EVQLLQSGAEVKKPGESLKISCKGSGYSFTSYWIGWVRQMPGKGLEWMGIIYPGDSDTRYSPSFQGQVTISADKSISTAYLQWSSLKASDTAMYYCARRGHYGDYFDYWGQGTLVTVSS
VL: SYELTQPPSVSVSPGQTARITCSGDALPKKYAYWYHQKSGQAPVLVIYEDRRRPSEIPERFSGSSSGTMATLTITGAQVEDEGVYFCYSRDRAGNQRVFGGGTQLTVLG
notes: pH-dependent anti-C2 antibody from a phage display library
B1: the Fold diff in test [1] is 2 fold; in test [2] it was 6 fold; in test [3], 1 fold; in test [4] it was 1 fold.
